{"source": "patent US20100015126A1", "about": "“Methods of Binding of Cross-Beta Structures By Chaperones” (priority 2006, published 2010)", "key": {"[1]": {"target": "T1, human mitochondrial HSP60 (Homo sapiens, UniProt P10809)", "T1 construct": "Dr. W. van Eden, Utrecht University; host or cells: E. coli", "T1 sequence (P10809 27-573)": "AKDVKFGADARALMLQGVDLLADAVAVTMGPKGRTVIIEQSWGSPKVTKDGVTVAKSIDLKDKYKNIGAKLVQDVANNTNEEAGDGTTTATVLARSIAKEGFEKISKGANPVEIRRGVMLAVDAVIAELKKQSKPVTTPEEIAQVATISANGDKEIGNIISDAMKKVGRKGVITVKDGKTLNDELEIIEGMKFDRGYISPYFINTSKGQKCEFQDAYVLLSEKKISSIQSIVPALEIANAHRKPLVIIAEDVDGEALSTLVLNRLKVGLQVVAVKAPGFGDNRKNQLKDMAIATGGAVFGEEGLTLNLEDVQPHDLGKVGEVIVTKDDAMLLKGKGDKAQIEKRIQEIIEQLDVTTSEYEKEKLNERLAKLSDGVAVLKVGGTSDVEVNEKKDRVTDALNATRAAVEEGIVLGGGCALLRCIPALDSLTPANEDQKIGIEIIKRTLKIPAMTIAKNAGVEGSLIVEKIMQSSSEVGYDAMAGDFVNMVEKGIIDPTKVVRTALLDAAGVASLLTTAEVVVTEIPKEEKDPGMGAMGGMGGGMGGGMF", "experiment": "ELISA: binding of HSP60 to immobilized (misfolded) protein ligands", "description": "Recombinant human HSP60 with N-terminal His-tag was a kind gift of Dr. R. van der Zee and Prof. Dr. W. van Eden (Institute of Infectious Diseases and Immunology, Faculty of Veterinary Medicine, Utrecht University, Utrecht, The Netherlands), and was supplied in lyophilized form. The HSP60 was produced in E. coli and purified using Nickel-Sepharose. The HSP60 was lyophilized from 20-40 mM ammonium-bicarbonate solution, after purification, and stored at −20° C. The construct lacks the mitochondrial signal sequence. […] Before use, the lyophilized protein is dissolved at room temperature at 1 mg/ml in 20-40 mM NH4HCO3, resulting in a pH of 7.0. Aliquots are stored at −20° C. or −80° C. The mitochondrial HSP60 is a functional dimer of heptamers (MW(HSP60 monomer)=˜58 kDa), and is involved in multimer protein assembling and aids in transport of unfolded proteins across membranes. For the binding studies, at two occasions separate HSP60 solutions were prepared originating from the same batch of purified protein, lyophilized in separate Eppendorf cups.\nBinding of chaperones to immobilized (misfolded) protein ligands was determined using an enzyme linked immuno sorbent assay (ELISA) approach. […] After 5 washes with wash buffer followed by two washes with PBS, binding of antibodies was assessed. […] Plates were read at 450 nm. […]"}, "[2]": {"experiment": "Transmission electron microscopy (TEM)", "format": "physicochemical", "details": "magnification 10K", "description": "Transmission Electron Microscopy (TEM)\nTEM images were collected using a Jeol 1200 EX transmission electron microscope (Jeol Ltd., Tokyo, Japan) at an excitation voltage of 80 kV. For each sample, the formvar and carbon-coated side of a 100-mesh copper or nickel grid was positioned on a 5 μl drop of protein solution for 5 minutes. Afterwards, it was positioned on a 100 μl drop of PBS for 2 minutes, followed by three 2-minute incubations with a 100 μl drop of distilled water. The grids were then stained for 2 minutes with a 100 μl drop of 2% (m/v) methylcellulose with 0.4% uranyl acetate pH 4. Excess fluid was removed by streaking the side of the grids over filter paper, and the grids were subsequently dried under a lamp. Samples were analysed at a magnification of 10K."}}}
{"molecule": "dOVA standard: heat-denatured chicken ovalbumin (protein) GSIGAASMEFCFDVFKELKVHHANENIFYCPIAIMSALAMVYLGAKDSTRTQINKVVRFDKLPGFGDSIEAQCGTSVNVHSSLRDILNQITKPNDVYSFSLASRLYAEERYPILPEYLQCVKELYRGGLEPINFQTAADQARELINSWVESQTNGIIRNVLQPSSVDSQTAMVLVNAIVFKGLWEKAFKDEDTQAMPFRVTEQESKPVQMMYQIGLFRVASMASEKMKILELPFASGTMSMLVLLPDEVSGLEQLESIINFEKLTEWTSSNVMEERKIKVYLPRMKMEEKYNLTSVLMAMGITDVFSSSANLSGISSAESLKISQAVHAAHAEINEAGREVVGSAEAGVDAASVSEEFRADHPFLFCIKHIATNAVLFFGRCVSP", "values": [{"measurement": "Binding of concentration series of HSP60 to coated ligand", "setting": "[1]", "result": "has been established"}, {"measurement": "Appearance on TEM images", "setting": "[2]", "result": "aggregates into non-fibrillar multimers"}]}
